Laboratory results reported in patent EP0530937A1.

Legend:
[1] = biological target: collagen receptor on MTLn3 cells (rat mammary tumor cells) (rat); assay: adhesion of 51Cr-labelled MTLn3 cells to wells coated with collagen type III with 10 µl Superose-pool (0.5 mg protein/ml)
[2] = biological target: collagen receptor on human platelets (human); assay: adhesion of platelets to a plate coated with collagen type I with 50 µl Superose-pool (0.5 mg protein/ml), 2 mM Mg2+
[3] = biological target: collagen receptor on human platelets (human); assay: adhesion of platelets to a plate coated with collagen type I with 10 µl Superose-pool (0.5 mg protein/ml), 2 mM Mg2+
[4] = biological target: collagen receptor on MTLn3 cells (rat mammary tumor cells) (rat); assay: adhesion of 51Cr-labelled MTLn3 cells to wells coated with collagen type III with 5 µl Superose-pool (0.5 mg protein/ml)
[5] = biological target: collagen receptor on MTLn3 cells (rat mammary tumor cells) (rat); assay: adhesion of 51Cr-labelled MTLn3 cells to wells coated with collagen type III with 2 µl Superose-pool (0.5 mg protein/ml)

cell attachment (cpm) [1]: 1080 cpm
adherent platelets per mm² (adherent platelets per mm²) [2]: 6500
adherent platelets per mm² (adherent platelets per mm²) [3]: 12000
cell attachment (cpm) [4]: 1610 cpm
cell attachment (cpm) [5]: 2070 cpm
Substance: collagen-induced platelet aggregation inhibitor from saliva of Triatoma pallidipennis (as saliva or as partially purified "Superose"-pool)
